In US20250154240A1, “ANTI-HUMAN CXCL1 ANTIBODY” (CHIOME BIOSCIENCE INC., priority 2022, published 2025):

T1: human CXCL3 (Homo sapiens, UniProt P19876)
T1 sequence (P19876 35-107): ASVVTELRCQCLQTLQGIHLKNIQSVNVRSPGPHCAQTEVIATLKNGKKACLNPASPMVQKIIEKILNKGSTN

T2: HuCXCL1 (Homo sapiens, UniProt P09341)
T2 construct: made in house; host or cells: Expi293 expression system (transient), protein from the culture supernatant
T2 sequence (P09341 35-107): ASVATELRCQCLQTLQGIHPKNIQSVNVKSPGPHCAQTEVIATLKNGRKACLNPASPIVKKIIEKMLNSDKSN


Assays:
human CXCL3 = molecular target: T1, human CXCL3; assay: Binding to human CXCL3
[1] = system: migration of HuCXCR2-expressing cells toward HuCXCL1; assay: Migration assay (Boyden chamber chemotaxis) of HuCXCR2-expressing cells toward HuCXCL1; type: cell-based, human; details: HuCXCL1 200 ng per ml in lower chamber
Protocol: The 80 clones with neutralizing activity against HuCXCL1 were evaluated for their inhibitory activity against the migration of HuCXCR2-expressing cells toward HuCXCL1.
Cell chemotaxis was measured by Boyden chamber assay, and QCM Chemoraxis Cell Migration Assay (Sigma-Aldrich Corporation) was purchased and used as an assay kit. AequoScrenn/CXCR2 cells were used as HuCXCR2-expressing cells. An isotype control antibody and a goat anti-HuCXCL1 polyclonal antibody (hereinafter referred to as AF275) were purchased from R&D Systems and used.
The HuCXCR2-expressing cells were cultured overnight at 37° C. in a serum-free culture medium, and then suspended in the assay buffer and adjusted to 2×10^6 cells per ml. The upper chamber of a Boyden chamber was filled with the HuCXCR2-expressing cell suspension, while the lower chamber was filled with the assay buffer alone or a solution containing HuCXCL1 in an amount of 200 ng per ml with or without a purified antibody, followed by incubation overnight at 37° C.
After incubation, the upper chamber was washed with PBS, placed into a new lower chamber containing a Cell Detachment Solution (Sigma-Aldrich Corporation), and then allowed to stand at 37° C. for 30 minutes to detach the migrated cells adhered to the bottom of the membrane in the upper chamber.
The migrated cell suspension was supplemented with 4× Lysis Buffer (Sigma-Aldrich Corporation) in a volume of 75 μL per well and allowed to stand at room temperature for 20 minutes, followed by measurement of fluorescence at an excitation wavelength of 480 nm and a fluorescence wavelength of 520 nm. The above about 80 clones were screened and evaluated for their inhibitory activity against the migration of CXCR2 cells.

CyCXCL1 = assay: Ca2+ Flux assay, CyCXCL1 neutralizing activity in AequoScreen/CXCR2 cells; type: cell-based, cynomolgus monkey; details: CyCXCL1 100 ng per ml; antibody 10 μg per ml
Protocol: For evaluation of neutralizing activity against CyCXCL1, CyCXCL1-induced changes in intracellular calcium ions in AequoScrenn/CXCR2 cells were measured as the luminescence intensity of aequorin.
AequoScrenn/CXCR2 cells were adjusted in the same manner as shown in [2-2] above. After CyCXCL1 was added to 96-well plates in an amount of 100 ng per ml, purified antibodies were each added in an amount of 10 μg per ml, and the plates were allowed to stand at room temperature for 30 minutes. To these plates, the AequoScree/CXCR2 cell suspension was added in a volume of 50 μL per well, immediately followed by measurement of luminescence intensity.
An antibody found to completely suppress CyCXCL1-induced luminescence from aequorin was determined to have cross-reactivity and indicated with “o” while an antibody found to not completely suppress luminescence from aequorin was indicated with “x” in Table A above.

HuCXCL1 = molecular target: T2, HuCXCL1; assay: HuCXCL1 binding activity, antigen-immobilized ELISA; details: HuCXCL1 immobilized at 3 μg/mL
Protocol: Antibodies produced from the hybridomas were evaluated for their HuCXCL1 binding activity by ELISA assay using plates on which the antigen (HuCXCL1 protein) used for immunization had been directly immobilized.
To 96-well plates, phosphate-buffered saline (PBS) containing 3 μg/mL of HuCXCL1 was added in a volume of 50 μL per well, and the plates were allowed to stand overnight at 4° C. After removal of the antigen solution, PBS containing 2% skimmed milk and 0.05% Tween-20 (hereinafter referred to as the blocking solution) was added to each well for blocking reaction, and the plates were allowed to stand at room temperature for 1 hour. After removal of the blocking solution, the culture supernatants of the hybridomas or DT40 were each added in a volume of 50 µL per well and reacted at room temperature for 1 hour. After removal of the culture supernatants and washing with PBS containing 0.05% Tween-20, an HRP-labeled secondary antibody diluted with the blocking solution was added and reacted at room temperature for 1 hour. After washing, TMB (Dako) was added as a chromogenic substrate solution to cause color development, and after 10 minutes, 1 N sulfuric acid was added to stop the reaction, followed by measurement of absorbance at 450 nm.

Chain of CyCXCL1 (as listed by the source): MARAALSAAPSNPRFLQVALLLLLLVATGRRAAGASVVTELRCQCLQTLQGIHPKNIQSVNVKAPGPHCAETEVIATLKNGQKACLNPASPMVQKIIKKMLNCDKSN
Chain of CyCXCL1 (P25025 whole entry partner): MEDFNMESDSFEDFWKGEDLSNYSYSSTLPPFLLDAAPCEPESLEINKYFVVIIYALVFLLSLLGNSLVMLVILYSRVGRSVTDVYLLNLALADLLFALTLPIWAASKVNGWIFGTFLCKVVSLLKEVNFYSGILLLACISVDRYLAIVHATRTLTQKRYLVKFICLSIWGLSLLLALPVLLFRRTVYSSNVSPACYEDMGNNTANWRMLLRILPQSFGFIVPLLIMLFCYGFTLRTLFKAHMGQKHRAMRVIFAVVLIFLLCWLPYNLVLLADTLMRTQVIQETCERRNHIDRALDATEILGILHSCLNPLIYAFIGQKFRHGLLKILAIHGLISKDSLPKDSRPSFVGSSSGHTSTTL

Molecule | Binding to human CXCL3 (human CXCL3) | Binding activity to HuCXCL1 ELISA (HuCXCL1) | CXCR2-expressing cell migration inhibitory activity Chemotaxis assay [1] | CyCXCL1 neutralizing activity Ca^2+ Flux assay (CyCXCL1)
4A-2F7: mouse monoclonal anti-HuCXCL1 antibody clone; VH SEQ ID NO: 9, VL SEQ ID NO: 13 (antibody, listed as Mus musculus, V domains shown) VH: QVTLKESGPGILKPSQTLSLTCSFSGFSLSTSGMGVDWIRQPSGKGLEWLAHIWWDDDKYYNPSLKSQLTISKDTSRNQVFLKITSVDTADTATYYCARSYGYDMDYYAMDYWGQGTSVTVSS VL: DIQMTQSPSSLSASLGERVSLTCRASQEISGYLSWLQQKPDGTIKRLIYAASTLDSGVPKRFSGSRSGSDYSLTISSLESEDFADYYCLQYASYPPWTFGGGTKLEIK | also bind | ∘ | ∘ | ∘
1A-7H10: mouse monoclonal anti-HuCXCL1 antibody clone; VH SEQ ID NO: 1, VL SEQ ID NO: 5 (antibody, listed as Mus musculus, V domains shown) VH: QVQLKESGPVLVAPSQSLSITCSVSGFSSTTYGVHWVRQPPGQGLEWLGVIWAGGSTNYNSALMSRLSISKDNSKSQVFLKMNSLQTDDTAMYYCATQYHYPFAYWGQGTLVTVSA VL: NIVMTQSPKSMSMSVGERVTLSCKASENVGIYVSWYQQKPEQSPKLMIYGASNRNTGVPDRFTGSGSATDFTLTISSVQAEDLADYYCGQSYSYPLTFGAGTKLELK | also bind | ∘ | ∘ | ∘

The next lines start with results.

Binding to human CXCL3 (human CXCL3) | Binding activity to HuCXCL1 ELISA (HuCXCL1) | Molecule | CXCR2-expressing cell migration inhibitory activity Chemotaxis assay [1] | CyCXCL1 neutralizing activity Ca^2+ Flux assay (CyCXCL1)
also bind | ∘ | 5A-5E11: mouse monoclonal anti-HuCXCL1 antibody clone; VH SEQ ID NO: 17, VL SEQ ID NO: 21 (antibody, listed as Mus musculus, V domains shown) VH: QVQLQQSGAELVRPGSSVKISCKASGYAFSDYWMNWVKQRPGQGLEWIGQIYPGDGDTNYNGKFKGKGTLTADKSSSTAYMQLNSLTSEDSAVYFCARERDYDVAMDYWGQGTSVTVSS VL: DIQMTQSPSSLSASLGGKVTITCKASQDINKYIAWFQHKPGKGPRLVIHYTSILQPGIPSRFSGVGSGRDYSFSIRNLEPEDIATYYCLQYDNLPWTFGGGTKLEIK | ∘ | ∘
also bind | ∘ | 028-8-12: human antibody against CXCL1 from the human ADLib technique; VH SEQ ID NO: 25, VL SEQ ID NO: 29 (antibody, listed as Gallus gallus, V domains shown) VH: EVQLLESGGGLVQPGGSLRLSCAASGFTFSELSMSWVRQAPGKGLEWVSAISGSGGSTYYADSVKGRFTISRDNSKNTLYLQMNSLRAEDTAVYYCAREGGRLEPYYYYYAMDVWGQGTPVTVSS VL: DIQMTQSPSSLSASVGDRVTITCRASQSISDNLHWYQQKPGKAPKLLIYDASNLESGVPSRFSGSGSGTDFTLTINSLQPEDFATYYCQQYYSTPLTFGQGTKLEIK | ∘ | ∘
